Broadly, the Km is the substrate concentration at which the rate is half of its maximum.

Substrate in the series: Nc1ncnc2c1ncn2[C@@H]1O[C@H](COP(=O)(O)OP(=O)(O)OP(=O)(O)O)[C@@H](O)[C@H]1O
Description: purified protein. The class given is biochemical, Homo sapiens. The following applies: Mg2+.

B1: human DNA topoisomerase IIα (Homo sapiens) (protein)
chain: MEVSPLQPVNENMQVNKIKKNEDAKKRLSVERIYQKKTQLEHILLRPDTYIGSVELVTQQMWVYDEDVGINYREVTFVPGLYKIFDEILVNAADNKQRDPKMSCIRVTIDPENNLISIWNNGKGIPVVEHKVEKMYVPALIFGQLLTSSNYDDDEKKVTGGRNGYGAKLCNIFSTKFTVETASREYKKMFKQTWMDNMGRAGEMELKPFNGEDYTCITFQPDLSKFKMQSLDKDIVALMVRRAYDIAGSTKDVKVFLNGNKLPVKGFRSYVDMYLKDKLDETGNSLKVIHEQVNHRWEVCLTMSEKGFQQISFVNSIATSKGGRHVDYVADQIVTKLVDVVKKKNKGGVAVKAHQVKNHMWIFVNALIENPTFDSQTKENMTLQPKSFGSTCQLSEKFIKAAIGCGIVESILNWVKFKAQVQLNKKCSAVKHNRIKGIPKLDDANDAGGRNSTECTLILTEGDSAKTLAVSGLGVVGRDKYGVFPLRGKILNVREASHKQIMENAEINNIIKIVGLQYKKNYEDEDSLKTLRYGKIMIMTDQDQDGSHIKGLLINFIHHNWPSLLRHRFLEEFITPIVKVSKNKQEMAFYSLPEFEEWKSSTPNHKKWKVKYYKGLGTSTSKEAKEYFADMKRHRIQFKYSGPEDDAAISLAFSKKQIDDRKEWLTNFMEDRRQRKLLGLPEDYLYGQTTTYLTYNDFINKELILFSNSDNERSIPSMVDGLKPGQRKVLFTCFKRNDKREVKVAQLAGSVAEMSSYHHGEMSLMMTIINLAQNFVGSNNLNLLQPIGQFGTRLHGGKDSASPRYIFTMLSSLARLLFPPKDDHTLKFLYDDNQRVEPEWYIPIIPMVLINGAEGIGTGWSCKIPNFDVREIVNNIRRLMDGEEPLPMLPSYKNFKGTIEELAPNQYVISGEVAILNSTTIEISELPVRTWTQTYKEQVLEPMLNGTEKTPPLITDYREYHTDTTVKFVVKMTEEKLAEAERVGLHKVFKLQTSLTCNSMVLFDHVGCLKKYDTVLDILRDFFELRLKYYGLRKEWLLGMLGAESAKLNNQARFILEKIDGKIIIENKPKKELIKVLIQRGYDSDPVKAWKEAQQKVPDEEENEESDNEKETEKSDSVTDSGPTFNYLLDMPLWYLTKEKKDELCRLRNEKEQELDTLKRKSPSDLWKEDLATFIEELEAVEAKEKQDEQVGLPGKGGKAKGKKTQMAEVLPSPRGQRVIPRITIEMKAEAEKKNKKKIKNENTEGSPQEDGVELEGLKQRLEKKQKREPGTKTKKQTTLAFKPIKKGKKRNPWSDSESDRSSDESNFDVPPRETEPRRAATKTKFTMDLDSDEDFSDFDEKTDDEDFVPSDASPPKTKTSPKLSNKELKPQKSVVSDLEADDVKGSVPLSSSPPATHFPDETEITNPVPKKNVTVKKTAAKSQSSTSTTGAKKRAAPKGTKRDPALNSGVSQKPDPAKTKNRRKRKPSTSDDSDSNFEKIVSKAVTSKKSKGESDDFHMDFDSAVAPRAKSVRAKKPIKYLEESDEDDLF
Take B1: the Km came to 220 ± 60 µM.

For the origin of these results see paper PMC6844113.
